Reference: patent publication US20210155689A1 (SHANGHAI PHARMAEXPLORER, published 2021)

Key:
[1] = biological target: LAG-3-hFc protein (human LAG-3 extracellular region with hFc tag) (human) (UniProt P18627); assay: ELISA, inhibition of LSECtin-His binding to coated LAG-3-hFc, antibody 0.013 nM, replicate 1
[2] = biological target: monkey LAG-3 on cells (HEK293-cLAG-3 stable cell line) (monkey); assay: FACS, HEK293-cLAG-3, antibody 0.064 nM
[3] = biological target: monkey LAG-3 on cells (HEK293-cLAG-3 stable cell line) (monkey); assay: FACS, HEK293-cLAG-3, antibody 0.320 nM
[4] = biological target: LAG-3-hFc protein (human LAG-3 extracellular region with hFc tag) (human) (UniProt P18627); assay: FACS, inhibition of LAG-3-hFc binding to MHC II on Raji cells, antibody 0.823 nM
[5] = biological target: LAG-3-hFc protein (human LAG-3 extracellular region with hFc tag) (human) (UniProt P18627); assay: FACS, inhibition of LAG-3-hFc binding to MHC II on Raji cells, antibody 22.222 nM
[6] = biological target: human LAG-3 on cells (HEK293-hLAG-3 stable cell line) (human) (UniProt P18627); assay: FACS, HEK293-hLAG-3, antibody 0.064 nM
[7] = biological target: LAG-3-hFc protein (human LAG-3 extracellular region with hFc tag) (human) (UniProt P18627); assay: ELISA, inhibition of LSECtin-His binding to coated LAG-3-hFc, antibody 200.000 nM, replicate 1
[8] = biological target: human LAG-3 on cells (HEK293-hLAG-3 stable cell line) (human) (UniProt P18627); assay: FACS, HEK293-hLAG-3, antibody 8.000 nM
[9] = biological target: LAG-3-hFc protein (human LAG-3 extracellular region with hFc tag) (human) (UniProt P18627); assay: ELISA, inhibition of LSECtin-His binding to coated LAG-3-hFc, antibody 200.000 nM, replicate 2
[10] = biological target: LAG-3-hFc protein (human LAG-3 extracellular region with hFc tag) (human) (UniProt P18627); assay: ELISA, inhibition of LSECtin-His binding to coated LAG-3-hFc, antibody 40.000 nM, replicate 2
[11] = biological target: human LAG-3 on cells (HEK293-hLAG-3 stable cell line) (human) (UniProt P18627); assay: FACS, HEK293-hLAG-3, antibody 1.600 nM
[12] = biological target: LAG-3-hFc protein (human LAG-3 extracellular region with hFc tag) (human) (UniProt P18627); assay: ELISA, inhibition of LSECtin-His binding to coated LAG-3-hFc, antibody 0.320 nM, replicate 1
[13] = biological target: monkey LAG-3 on cells (HEK293-cLAG-3 stable cell line) (monkey); assay: FACS, HEK293-cLAG-3, antibody 40.000 nM
[14] = biological target: human LAG-3 on cells (HEK293-hLAG-3 stable cell line) (human) (UniProt P18627); assay: FACS, HEK293-hLAG-3, antibody 40.000 nM
[15] = biological target: monkey LAG-3 on cells (HEK293-cLAG-3 stable cell line) (monkey); assay: FACS, HEK293-cLAG-3, antibody 0.013 nM
[16] = biological target: human LAG-3 on cells (HEK293-hLAG-3 stable cell line) (human) (UniProt P18627); assay: FACS, HEK293-hLAG-3, antibody 0.064 nM; remark: listed apart in the source
[17] = biological target: LAG-3-hFc protein (human LAG-3 extracellular region with hFc tag) (human) (UniProt P18627); assay: FACS, inhibition of LAG-3-hFc binding to MHC II on Raji cells, antibody 66.667 nM
[18] = biological target: human LAG-3 on cells (HEK293-hLAG-3 stable cell line) (human) (UniProt P18627); assay: FACS, HEK293-hLAG-3, antibody 0.000 nM
[19] = biological target: human LAG-3 on cells (HEK293-hLAG-3 stable cell line) (human) (UniProt P18627); assay: FACS, HEK293-hLAG-3, antibody 1.6 nM
[20] = biological target: LAG-3-hFc protein (human LAG-3 extracellular region with hFc tag) (human) (UniProt P18627); assay: FACS, inhibition of LAG-3-hFc binding to MHC II on Raji cells, antibody 0.000 nM
[21] = biological target: T1, human LAG-3 on cells (HEK293-hLAG-3 stable cell line) (human, UniProt P18627 23-525); assay: FACS, HEK293-hLAG-3, antibody 0 nM
T1 sequence: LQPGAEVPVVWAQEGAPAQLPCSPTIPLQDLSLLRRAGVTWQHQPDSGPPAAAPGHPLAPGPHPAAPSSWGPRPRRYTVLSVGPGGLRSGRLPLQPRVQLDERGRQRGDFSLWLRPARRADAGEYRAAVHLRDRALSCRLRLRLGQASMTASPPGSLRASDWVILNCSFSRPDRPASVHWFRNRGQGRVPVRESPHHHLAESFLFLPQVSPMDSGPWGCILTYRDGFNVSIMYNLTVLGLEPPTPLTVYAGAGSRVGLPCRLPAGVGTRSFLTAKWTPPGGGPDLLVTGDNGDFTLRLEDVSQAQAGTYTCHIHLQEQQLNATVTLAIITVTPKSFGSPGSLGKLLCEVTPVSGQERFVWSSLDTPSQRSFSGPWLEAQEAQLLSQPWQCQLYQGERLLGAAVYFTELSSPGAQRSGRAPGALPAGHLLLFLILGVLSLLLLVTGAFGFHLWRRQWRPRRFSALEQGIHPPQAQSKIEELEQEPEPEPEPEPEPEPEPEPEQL

[22] = biological target: T1, human LAG-3 on cells (HEK293-hLAG-3 …); assay: FACS, HEK293-hLAG-3, antibody 40 nM
[23] = biological target: T1, human LAG-3 on cells (HEK293-hLAG-3 …); assay: FACS, HEK293-hLAG-3, antibody 0.064 nM
Text: (§1) A. The binding of antibodies to LAG-3 expressing cells was detected by Flow cytometry (FACS), wherein the method was according to that of Example 5.

[24] = biological target: T1, human LAG-3 on cells (HEK293-hLAG-3 …); assay: FACS, HEK293-hLAG-3, antibody 40 nM; remark: listed apart in the source
Text: as §1

monkey LAG-3 on cells (HEK293-cLAG-3 stable cell line) (monkey), sequence (P18627 other isoform, or with tags, fused parts or gaps limits assumed): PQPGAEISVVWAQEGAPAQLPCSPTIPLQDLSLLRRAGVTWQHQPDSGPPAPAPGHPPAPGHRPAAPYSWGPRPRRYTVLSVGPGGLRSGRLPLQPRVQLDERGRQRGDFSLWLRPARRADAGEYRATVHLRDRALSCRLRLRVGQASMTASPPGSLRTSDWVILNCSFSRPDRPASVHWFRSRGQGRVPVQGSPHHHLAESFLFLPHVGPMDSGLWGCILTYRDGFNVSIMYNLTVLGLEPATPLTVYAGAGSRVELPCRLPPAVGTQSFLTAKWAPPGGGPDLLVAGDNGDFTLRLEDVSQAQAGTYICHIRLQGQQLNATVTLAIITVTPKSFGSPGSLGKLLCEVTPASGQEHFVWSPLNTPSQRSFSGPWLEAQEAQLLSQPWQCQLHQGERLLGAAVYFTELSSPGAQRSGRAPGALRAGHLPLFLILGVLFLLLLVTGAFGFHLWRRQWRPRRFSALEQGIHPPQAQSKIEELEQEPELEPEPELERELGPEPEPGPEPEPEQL

hIgG control (antibody)
Inhibition rate (%) [1]: -12.9% | Mean fluorescence intensity [2]: 3.04 | Mean fluorescence intensity [3]: 3.13 | Inhibition rate (%) [4]: 10.2% | Inhibition rate (%) [5]: 19.7% | Mean fluorescence intensity [6]: 4 | Inhibition rate (%) [7]: 2.6% | Mean fluorescence intensity [8]: 3 | Inhibition rate (%) [9]: -2.2% | Inhibition rate (%) [10]: -3.5% | Mean fluorescence intensity [11]: 2.7 | Inhibition rate (%) [12]: -7.9% | Mean fluorescence intensity [13]: 2.88 | Mean fluorescence intensity [14]: 3.1 | Mean fluorescence intensity [15]: 2.87 | Mean fluorescence intensity [16]: 3.1 | Inhibition rate (%) [17]: 12.1% | Mean fluorescence intensity [18]: 3 | Mean fluorescence intensity [19]: 4 | Inhibition rate (%) [20]: 17.7%

B1: 556F6B8 mouse-human chimeric antibody (antibody, V domains shown)
VH: RVQLKQSGPGLVQPSQSLSITCTVSGFSLIKYGVHWVRQSPGEGLEWLGVIWRGGITDYNAAFMSRLSITKDNSKSQVFFKMNSLQADDTAIYYCAKWDGPLAMDYWGQGTSVTVSS
VL: DIVMTQSHKFLSTSVGDRVSITCKASQDVGTTVAWYQQKPGQSPKLLIYWASTRHTGVPDRFTGSGSGTDFTLTISNVQSEDLADYFCQQYSSYPYTFGGGTKLEIK
notes: also called mAb123-556F6B8; 556F8B8
Mean fluorescence intensity [21]: 4 | Mean fluorescence intensity [22]: 96

B2: 405B8H3 mouse-human chimeric antibody (antibody, V domains shown)
VH: QVQLQQSGAELVRPGASVTLSCKASGYTFTDYEMHWVKQTPVHGLEWIGATDPETGNSAYNQKFKGKAIMTADKSSSTAYMELRSLTSEDSAVYYCISTGWNDWGQGTSLTVSS
VL: DIKMTQSPSSMYASLGERVTITCKASQDINSYLSWFQQKPGKSPKTLIYRADRLLDGVPSRFSGSGSGQDYSLTISSLEYGDMGIYYCLQYDEFPYTFGGGTKLEIK
notes: also called mAb103-405B8H3
Mean fluorescence intensity [23]: 19 | Mean fluorescence intensity [24]: 266
